The target of this test is T1, soluble Wnt decoy receptor sLRP6E1E2 (FLAG-tagged E1 and E2 extracellular domains of LRP6) (Homo sapiens (Human), UniProt O75581 20-651).
T1 construct: Expressed in the assay cells from the adenoviral vector dE1-k35/sLRP6E1E2 and not added as purified protein; also called soluble LRP6 receptor; decoy Wnt receptor; not shown: FLAG tag
T1 sequence: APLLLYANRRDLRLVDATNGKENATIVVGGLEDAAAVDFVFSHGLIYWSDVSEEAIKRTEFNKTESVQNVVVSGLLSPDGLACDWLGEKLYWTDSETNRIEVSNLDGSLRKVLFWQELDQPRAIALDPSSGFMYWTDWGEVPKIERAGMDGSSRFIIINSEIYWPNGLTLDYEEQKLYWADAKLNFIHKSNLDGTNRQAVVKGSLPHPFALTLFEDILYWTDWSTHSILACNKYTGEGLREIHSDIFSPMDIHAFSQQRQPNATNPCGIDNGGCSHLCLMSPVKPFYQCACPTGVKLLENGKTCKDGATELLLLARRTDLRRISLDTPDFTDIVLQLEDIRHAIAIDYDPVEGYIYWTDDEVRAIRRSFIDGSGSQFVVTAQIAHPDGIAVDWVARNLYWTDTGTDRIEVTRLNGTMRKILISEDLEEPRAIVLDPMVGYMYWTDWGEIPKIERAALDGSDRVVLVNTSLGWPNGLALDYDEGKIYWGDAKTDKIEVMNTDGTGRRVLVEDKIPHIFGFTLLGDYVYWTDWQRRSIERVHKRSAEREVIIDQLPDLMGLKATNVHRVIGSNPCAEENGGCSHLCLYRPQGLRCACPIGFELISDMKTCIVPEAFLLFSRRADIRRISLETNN
Description: immunoprecipitation of lysates of transduced H322 and H460 cells with anti-Wnt3a or anti-LRP6, then western blot. The procedure:
FIG. 1 represents characterization of the decoy Wnt receptor sLRP6E1E2. FIG. 1a is schematic representation of the genomic structure of Ad vectors used. […] Cell culture supernatants were assessed with FLAG- or LRP6-specific Ab. (d) H322 and H460 cells were transduced with dE1-k35/LacZ or dE1-k35/sLRP6E1E2 (50 MOI) for 48 hr. Cell lysates were immunoprecipitated with antisera against Wnt3a (IP: Wnt3a) or LRP6 (IP: LRP6) followed by western blot (WB) analysis with the same antibodies.
Next, binding of sLRP6E1E2 to Wnt3a was assessed in cells transduced with dE1-k35/LacZ or dE1-k35/sLRP6E1E2. Cell lysates were immunoprecipitated with anti-Wnt3a or anti-LRP6 antibodies and analyzed by western blot.
(A western blot detects proteins with antibodies after separation by electrophoresis.)

B1: Wnt3a, endogenous in human non-small cell lung cancer cell lines H322 and H460 (ligand, UniProt P56704 19-352, looked up)
chain: SYPIWWSLAVGPQYSSLGSQPILCASIPGLVPKQLRFCRNYVEIMPSVAEGIKIGIQECQHQFRGRRWNCTTVHDSLAIFGPVLDKATRESAFVHAIASAGVAFAVTRSCAEGTAAICGCSSRHQGSPGKGWKWGGCSEDIEFGGMVSREFADARENRPDARSAMNRHNNEAGRQAIASHMHLKCKCHGLSGSCEVKTCWWSQPDFRAIGDFLKDKYDSASEMVVEKHRESRGWVETLRPRYTYFKVPTERDLVYYEASPNFCEPNPETGSFGTRDRTCNVSSHGIDGCDLLCCGRGHNARAERRREKCRCVFHWCCYVSCQECTRVYDVHTCK
notes: Present in cell lysates in the immunoprecipitation; also called Wnt 3a protein
For the molecule B1, the binding result was “binds”.

The record behind these values is US20140315825A1 (GENEMEDICINE, published 2014).
